Data on six molecules can be found in article doi:10.1101/2022.02.08.479534, “FoxP3 can fold into two distinct dimerization states with divergent functional implications for T cell homeostasis” (bioRxiv, 2022).

Changes are numbered by the printed parent chain. Names and notes keep the numbering of the source.

Data set [1] concerns the molecule itself. Nature of the data set: SEC-MALS; NusA-fused proteins on Superdex 200 Increase 10/300; 20 mM Tris pH 7.5, 500 mM NaCl, 2 mM DTT; miniDAWN MALS and Optilab dRI detectors.
Data set [2] deals with the molecule itself. The data set is described as follows: cross-linking; 2 μM FoxP3^forkhead with 100 μM BMOE in 1x PBS, 1 h at 25°C, quenched with 10 mM DTT; SDS-PAGE, Krypton stain.
The target in data set [3] is T1, MBP-tagged FoxP3^RBR-forkhead (mouse, UniProt Q99JB6 284-423).
T1 construct: FoxP3, mouse, RBR-forkhead, residues 284-423; cloned into a modified pMAL-c2 vector; also called MBP-FoxP3^RBR-forkhead; His6-MBP fused FoxP3^RBR-forkhead; source: E. coli BL21(DE3), purified (Ni-NTA, Superdex 200)
T1 sequence (looked up): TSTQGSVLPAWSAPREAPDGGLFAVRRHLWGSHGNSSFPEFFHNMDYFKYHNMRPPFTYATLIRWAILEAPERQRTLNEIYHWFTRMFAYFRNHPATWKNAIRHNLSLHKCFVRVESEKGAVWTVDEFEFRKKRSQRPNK
Nature of the data set: pull-down; MBP pull-down: MBP-FoxP3^RBR-forkhead 1 μM with GST-Runx1(371-451) 0.5 μM, with or without 2 μM DNA (IR-FKHM^4g or single FKHM), 30 min at room temperature in RIPA buffer. Particulars: both partners purified.

B1: NusA-tagged FoxP3^forkhead (domain or fragment, mouse, UniProt Q99JB6 336-423, looked up)
chain: MRPPFTYATLIRWAILEAPERQRTLNEIYHWFTRMFAYFRNHPATWKNAIRHNLSLHKCFVRVESEKGAVWTVDEFEFRKKRSQRPNK
notes: FoxP3, mouse, forkhead domain, residues 336-423; NusA (60 kDa) kept for SEC-MALS; also called isolated FoxP3 forkhead; source: E. coli BL21(DE3), purified (Ni-NTA, Superdex 200), HRV3C cleavage omitted; not shown: His6, N-terminal, kept; NusA, N-terminal, kept
A word on the stoichiometry N: it is the number of molecules, sites or subunits per partner or assembly. For the molecule B1, the “stoichiometry N” value in data set [1] was 2.

B2: FoxP3^forkhead C394S T368C (swap dimer-specific X-linking construct) (domain or fragment, mouse, UniProt Q99JB6 336-423, looked up)
chain: B1 chain with T33C, C59S
notes: FoxP3, mouse, forkhead, residues 336-423 with C394S and T368C; source: E. coli BL21(DE3), purified (Ni-NTA, HRV3C cleavage, Superdex 75); not shown: His6, N-terminal, cleaved; NusA, N-terminal, cleaved
Regarding B2, in data set [2], the binding result is recorded as “binds”.

B3: NusA-tagged FoxP3^ΔN (domain or fragment, mouse, UniProt Q99JB6 188-423, looked up)
chain: GSYPLLANGVCKWPGCEKVFEEPEEFLKHCQADHLLDEKGKAQCLLQREVVQSLEQQLELEKEKLGAMQAHLAGKMALAKAPSVASMDKSSCCIVATSTQGSVLPAWSAPREAPDGGLFAVRRHLWGSHGNSSFPEFFHNMDYFKYHNMRPPFTYATLIRWAILEAPERQRTLNEIYHWFTRMFAYFRNHPATWKNAIRHNLSLHKCFVRVESEKGAVWTVDEFEFRKKRSQRPNK
notes: FoxP3, mouse, ZF, CC, RBR and forkhead, residues 188-423; source: E. coli BL21(DE3), purified (Ni-NTA, Superdex 200), HRV3C cleavage omitted; not shown: His6, N-terminal, kept; NusA, N-terminal, kept
As to B3, the “stoichiometry N” value in data set [1] was 2.

B4: GST-tagged Runx1 (residue 371-451) (domain or fragment, mouse, UniProt Q03347 371-451, looked up)
chain: GSPSYHLYYGASAGSYQFSMVGGERSPPRILPPCTNASTGAALLNPSLPSQSDVVETEGSHSNSPTNMPPARLEEAVWRPY
notes: cloned into pGEX-6P-1; also called Runx1^ΔN; source: E. coli BL21(DE3), purified (Ni-NTA, Superdex 200)
B4: the binding result in data set [3] is given as “binds”.

B5: NusA-tagged FoxP3^RBR-forkhead R337Q (domain or fragment, mouse, UniProt Q99JB6 284-423, looked up)
chain: T1 sequence (looked up) with R54Q
notes: FoxP3, mouse, RBR-forkhead, residues 284-423 with the IPEX mutation R337Q; R337Q is a mutation of human IPEX patients, here put into the mouse protein; also called R337Q FoxP3^RBR-forkhead; FoxP3^RBR-forkhead with R337Q; source: E. coli BL21(DE3), purified (Ni-NTA, Superdex 200), HRV3C cleavage omitted; not shown: His6, N-terminal, kept; NusA, N-terminal, kept
Consider B5, for which, in data set [1], the “stoichiometry N” value worked out at 2.

B6: NusA-tagged FoxP3^RBR-forkhead Y373V (domain or fragment, mouse, UniProt Q99JB6 284-423, looked up)
chain: T1 sequence (looked up) with Y90V
notes: FoxP3, mouse, RBR-forkhead, residues 284-423 with the IPEX mutation Y373V; Y373V is a mutation of human IPEX patients, here put into the mouse protein; also called Y373V FoxP3^RBR-forkhead; source: E. coli BL21(DE3), purified (Ni-NTA, Superdex 200), HRV3C cleavage omitted; not shown: His6, N-terminal, kept; NusA, N-terminal, kept
Regarding B6, the “stoichiometry N” value in data set [1] worked out at 4.
